T1: FcγRIIa H (FcγRIIa, type H allotype, His at position 131), extracellular domain with C-terminal His tag (human, UniProt P12318 34-217)
T1 construct: extracellular domain; Soluble receptor expressed in FreeStyle293 cells; analyte in Biacore; also called FcgRIIa H; 2aH; not shown: C-terminal His tag
T1 sequence (looked up): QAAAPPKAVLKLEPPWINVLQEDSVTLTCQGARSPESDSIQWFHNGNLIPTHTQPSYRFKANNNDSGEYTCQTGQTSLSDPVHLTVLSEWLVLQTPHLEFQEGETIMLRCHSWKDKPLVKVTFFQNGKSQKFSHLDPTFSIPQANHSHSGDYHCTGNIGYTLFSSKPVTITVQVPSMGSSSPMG

T2: FcγRIIb, extracellular domain with C-terminal His tag (human, UniProt P31994 43-217)
T2 construct: extracellular domain; Soluble receptor expressed in FreeStyle293 cells; analyte in Biacore; also called FcgRIIb; 2b; not shown: C-terminal His tag
T2 sequence (looked up): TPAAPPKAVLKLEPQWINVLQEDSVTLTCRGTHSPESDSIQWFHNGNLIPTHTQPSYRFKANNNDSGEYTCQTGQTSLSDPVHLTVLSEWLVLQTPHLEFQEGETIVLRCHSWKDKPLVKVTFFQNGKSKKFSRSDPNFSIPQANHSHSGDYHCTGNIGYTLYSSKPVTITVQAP


Legend:
[1] = target: T1, FcγRIIa H (FcγRIIa, type H allotype, …); assay: SPR (Biacore), captured antibody, FcγR as analyte
[2] = target: T2, FcγRIIb, extracellular domain with …; assay: SPR (Biacore), captured antibody, FcγR as analyte
[3] = target: T1, FcγRIIa H (FcγRIIa, type H allotype, …); assay: ratio of He/Con_2aH to He/Con_2b (FcγRIIa H over FcγRIIb), SPR

Row | Binder | He/Con_2aH [1] | He/Con_2b [2] | He_2aH/2b (IIaH/IIb) [3]
1 | GpH7-A5/GpH7-B3 variant D270_12R/GpL16-k0 (antibody, human IgG1, kappa, Heterodimerized IgG1; mutation only in the GpH7-B3 chain; also called He Ab) heavy 1: not shown heavy 2: not shown light: DIVMTQSPLSLPVTPGEPASISCQASESLVHSNRNTYLHWYLQKPGQSPQLLIYKVSNRFSGVPDRFSGSGSGTDFTLKISRVEAEDVGVYYCSQNTHVPPTFGQGTKVEIERTVAAPSVFIFPPSDEQLKSGTASVVCLLNNFYPREAKVQWKVDNALQSGNSQESVTEQDSKDSTYSLSSTLTLSKADYEKHKVYACEVTHQGLSSPVTKSFNRGEC | 39.5 relative, GpH7-A5/GpH7-B3/GpL16-k0 = 100 | 18.3 relative, GpH7-A5/GpH7-B3/GpL16-k0 = 100 | 2.16
2 | GpH7-A5/GpH7-B3 variant E269_08L/GpL16-k0 (antibody, human IgG1, kappa, Heterodimerized IgG1; mutation only in the GpH7-B3 chain; also called He Ab) heavy 1: not shown heavy 2: not shown light: DIVMTQSPLSLPVTPGEPASISCQASESLVHSNRNTYLHWYLQKPGQSPQLLIYKVSNRFSGVPDRFSGSGSGTDFTLKISRVEAEDVGVYYCSQNTHVPPTFGQGTKVEIERTVAAPSVFIFPPSDEQLKSGTASVVCLLNNFYPREAKVQWKVDNALQSGNSQESVTEQDSKDSTYSLSSTLTLSKADYEKHKVYACEVTHQGLSSPVTKSFNRGEC | 67.4 relative, GpH7-A5/GpH7-B3/GpL16-k0 = 100 | 42.9 relative, GpH7-A5/GpH7-B3/GpL16-k0 = 100 | 1.57
3 | GpH7-A5/GpH7-B3 variant E269_02A/GpL16-k0 (antibody, human IgG1, kappa, Heterodimerized IgG1; mutation only in the GpH7-B3 chain; also called He Ab) heavy 1: not shown heavy 2: not shown light: DIVMTQSPLSLPVTPGEPASISCQASESLVHSNRNTYLHWYLQKPGQSPQLLIYKVSNRFSGVPDRFSGSGSGTDFTLKISRVEAEDVGVYYCSQNTHVPPTFGQGTKVEIERTVAAPSVFIFPPSDEQLKSGTASVVCLLNNFYPREAKVQWKVDNALQSGNSQESVTEQDSKDSTYSLSSTLTLSKADYEKHKVYACEVTHQGLSSPVTKSFNRGEC | 77.8 relative, GpH7-A5/GpH7-B3/GpL16-k0 = 100 | 49.9 relative, GpH7-A5/GpH7-B3/GpL16-k0 = 100 | 1.56
4 | GpH7-A5/GpH7-B3 variant D270_13S/GpL16-k0 (antibody, human IgG1, kappa, Heterodimerized IgG1; mutation only in the GpH7-B3 chain; also called He Ab) heavy 1: not shown heavy 2: not shown light: DIVMTQSPLSLPVTPGEPASISCQASESLVHSNRNTYLHWYLQKPGQSPQLLIYKVSNRFSGVPDRFSGSGSGTDFTLKISRVEAEDVGVYYCSQNTHVPPTFGQGTKVEIERTVAAPSVFIFPPSDEQLKSGTASVVCLLNNFYPREAKVQWKVDNALQSGNSQESVTEQDSKDSTYSLSSTLTLSKADYEKHKVYACEVTHQGLSSPVTKSFNRGEC | 71.2 relative, GpH7-A5/GpH7-B3/GpL16-k0 = 100 | 44.2 relative, GpH7-A5/GpH7-B3/GpL16-k0 = 100 | 1.61
5 | GpH7-A5/GpH7-B3 variant E269_04F/GpL16-k0 (antibody, human IgG1, kappa, Heterodimerized IgG1; mutation only in the GpH7-B3 chain; also called He Ab) heavy 1: not shown heavy 2: not shown light: DIVMTQSPLSLPVTPGEPASISCQASESLVHSNRNTYLHWYLQKPGQSPQLLIYKVSNRFSGVPDRFSGSGSGTDFTLKISRVEAEDVGVYYCSQNTHVPPTFGQGTKVEIERTVAAPSVFIFPPSDEQLKSGTASVVCLLNNFYPREAKVQWKVDNALQSGNSQESVTEQDSKDSTYSLSSTLTLSKADYEKHKVYACEVTHQGLSSPVTKSFNRGEC | 68.5 relative, GpH7-A5/GpH7-B3/GpL16-k0 = 100 | 45 relative, GpH7-A5/GpH7-B3/GpL16-k0 = 100 | 1.52
6 | GpH7-A5/GpH7-B3 variant D270_18N/GpL16-k0 (antibody, human IgG1, kappa, Heterodimerized IgG1; mutation only in the GpH7-B3 chain; also called He Ab) heavy 1: not shown heavy 2: not shown light: DIVMTQSPLSLPVTPGEPASISCQASESLVHSNRNTYLHWYLQKPGQSPQLLIYKVSNRFSGVPDRFSGSGSGTDFTLKISRVEAEDVGVYYCSQNTHVPPTFGQGTKVEIERTVAAPSVFIFPPSDEQLKSGTASVVCLLNNFYPREAKVQWKVDNALQSGNSQESVTEQDSKDSTYSLSSTLTLSKADYEKHKVYACEVTHQGLSSPVTKSFNRGEC | 62.5 relative, GpH7-A5/GpH7-B3/GpL16-k0 = 100 | 40.3 relative, GpH7-A5/GpH7-B3/GpL16-k0 = 100 | 1.55
7 | GpH7-A5/GpH7-B3 variant D270_19Q/GpL16-k0 (antibody, human IgG1, kappa, Heterodimerized IgG1; mutation only in the GpH7-B3 chain; also called He Ab) heavy 1: not shown heavy 2: not shown light: DIVMTQSPLSLPVTPGEPASISCQASESLVHSNRNTYLHWYLQKPGQSPQLLIYKVSNRFSGVPDRFSGSGSGTDFTLKISRVEAEDVGVYYCSQNTHVPPTFGQGTKVEIERTVAAPSVFIFPPSDEQLKSGTASVVCLLNNFYPREAKVQWKVDNALQSGNSQESVTEQDSKDSTYSLSSTLTLSKADYEKHKVYACEVTHQGLSSPVTKSFNRGEC | 85 relative, GpH7-A5/GpH7-B3/GpL16-k0 = 100 | 48 relative, GpH7-A5/GpH7-B3/GpL16-k0 = 100 | 1.77

Results, then the binder that gave them:

Row | He/Con_2aH [1] | He/Con_2b [2] | He_2aH/2b (IIaH/IIb) [3] | Binder
8 | 71.9 relative, GpH7-A5/GpH7-B3/GpL16-k0 = 100 | 44.9 relative, GpH7-A5/GpH7-B3/GpL16-k0 = 100 | 1.6 | GpH7-A5/GpH7-B3 variant D270_15Y/GpL16-k0 (antibody, human IgG1, kappa, Heterodimerized IgG1; mutation only in the GpH7-B3 chain; also called He Ab) heavy 1: not shown heavy 2: not shown light: DIVMTQSPLSLPVTPGEPASISCQASESLVHSNRNTYLHWYLQKPGQSPQLLIYKVSNRFSGVPDRFSGSGSGTDFTLKISRVEAEDVGVYYCSQNTHVPPTFGQGTKVEIERTVAAPSVFIFPPSDEQLKSGTASVVCLLNNFYPREAKVQWKVDNALQSGNSQESVTEQDSKDSTYSLSSTLTLSKADYEKHKVYACEVTHQGLSSPVTKSFNRGEC
9 | 60.2 relative, GpH7-A5/GpH7-B3/GpL16-k0 = 100 | 34.7 relative, GpH7-A5/GpH7-B3/GpL16-k0 = 100 | 1.74 | GpH7-A5/GpH7-B3 variant D270_20W/GpL16-k0 (antibody, human IgG1, kappa, Heterodimerized IgG1; mutation only in the GpH7-B3 chain; also called He Ab) heavy 1: not shown heavy 2: not shown light: DIVMTQSPLSLPVTPGEPASISCQASESLVHSNRNTYLHWYLQKPGQSPQLLIYKVSNRFSGVPDRFSGSGSGTDFTLKISRVEAEDVGVYYCSQNTHVPPTFGQGTKVEIERTVAAPSVFIFPPSDEQLKSGTASVVCLLNNFYPREAKVQWKVDNALQSGNSQESVTEQDSKDSTYSLSSTLTLSKADYEKHKVYACEVTHQGLSSPVTKSFNRGEC
10 | 75.3 relative, GpH7-A5/GpH7-B3/GpL16-k0 = 100 | 57.8 relative, GpH7-A5/GpH7-B3/GpL16-k0 = 100 | 1.3 | GpH7-A5/GpH7-B3 variant D270_14T/GpL16-k0 (antibody, human IgG1, kappa, Heterodimerized IgG1; mutation only in the GpH7-B3 chain; also called He Ab) heavy 1: not shown heavy 2: not shown light: DIVMTQSPLSLPVTPGEPASISCQASESLVHSNRNTYLHWYLQKPGQSPQLLIYKVSNRFSGVPDRFSGSGSGTDFTLKISRVEAEDVGVYYCSQNTHVPPTFGQGTKVEIERTVAAPSVFIFPPSDEQLKSGTASVVCLLNNFYPREAKVQWKVDNALQSGNSQESVTEQDSKDSTYSLSSTLTLSKADYEKHKVYACEVTHQGLSSPVTKSFNRGEC
11 | 67.5 relative, GpH7-A5/GpH7-B3/GpL16-k0 = 100 | 45.1 relative, GpH7-A5/GpH7-B3/GpL16-k0 = 100 | 1.49 | GpH7-A5/GpH7-B3 variant E269_03V/GpL16-k0 (antibody, human IgG1, kappa, Heterodimerized IgG1; mutation only in the GpH7-B3 chain; also called He Ab) heavy 1: not shown heavy 2: not shown light: DIVMTQSPLSLPVTPGEPASISCQASESLVHSNRNTYLHWYLQKPGQSPQLLIYKVSNRFSGVPDRFSGSGSGTDFTLKISRVEAEDVGVYYCSQNTHVPPTFGQGTKVEIERTVAAPSVFIFPPSDEQLKSGTASVVCLLNNFYPREAKVQWKVDNALQSGNSQESVTEQDSKDSTYSLSSTLTLSKADYEKHKVYACEVTHQGLSSPVTKSFNRGEC
12 | 73.6 relative, GpH7-A5/GpH7-B3/GpL16-k0 = 100 | 46.7 relative, GpH7-A5/GpH7-B3/GpL16-k0 = 100 | 1.58 | GpH7-A5/GpH7-B3 variant E269_06M/GpL16-k0 (antibody, human IgG1, kappa, Heterodimerized IgG1; mutation only in the GpH7-B3 chain; also called He Ab) heavy 1: not shown heavy 2: not shown light: DIVMTQSPLSLPVTPGEPASISCQASESLVHSNRNTYLHWYLQKPGQSPQLLIYKVSNRFSGVPDRFSGSGSGTDFTLKISRVEAEDVGVYYCSQNTHVPPTFGQGTKVEIERTVAAPSVFIFPPSDEQLKSGTASVVCLLNNFYPREAKVQWKVDNALQSGNSQESVTEQDSKDSTYSLSSTLTLSKADYEKHKVYACEVTHQGLSSPVTKSFNRGEC
13 | 71.5 relative, GpH7-A5/GpH7-B3/GpL16-k0 = 100 | 47.2 relative, GpH7-A5/GpH7-B3/GpL16-k0 = 100 | 1.51 | GpH7-A5/GpH7-B3 variant D270_16H/GpL16-k0 (antibody, human IgG1, kappa, Heterodimerized IgG1; mutation only in the GpH7-B3 chain; also called He Ab) heavy 1: not shown heavy 2: not shown light: DIVMTQSPLSLPVTPGEPASISCQASESLVHSNRNTYLHWYLQKPGQSPQLLIYKVSNRFSGVPDRFSGSGSGTDFTLKISRVEAEDVGVYYCSQNTHVPPTFGQGTKVEIERTVAAPSVFIFPPSDEQLKSGTASVVCLLNNFYPREAKVQWKVDNALQSGNSQESVTEQDSKDSTYSLSSTLTLSKADYEKHKVYACEVTHQGLSSPVTKSFNRGEC
14 | 66.6 relative, GpH7-A5/GpH7-B3/GpL16-k0 = 100 | 43.9 relative, GpH7-A5/GpH7-B3/GpL16-k0 = 100 | 1.52 | GpH7-A5/GpH7-B3 variant E269_07I/GpL16-k0 (antibody, human IgG1, kappa, Heterodimerized IgG1; mutation only in the GpH7-B3 chain; also called He Ab) heavy 1: not shown heavy 2: not shown light: DIVMTQSPLSLPVTPGEPASISCQASESLVHSNRNTYLHWYLQKPGQSPQLLIYKVSNRFSGVPDRFSGSGSGTDFTLKISRVEAEDVGVYYCSQNTHVPPTFGQGTKVEIERTVAAPSVFIFPPSDEQLKSGTASVVCLLNNFYPREAKVQWKVDNALQSGNSQESVTEQDSKDSTYSLSSTLTLSKADYEKHKVYACEVTHQGLSSPVTKSFNRGEC

— patent US20180155451A1 (published 2018)
